Here are results for 1 protein from publication PMC10706272, “Improving the Thermostability of Thermomyces lanuginosus Lipase by Restricting the Flexibility of N-Terminus and C-Terminus Simultaneously via the 25-Loop Substitutions” (International Journal of Molecular Sciences, 2023).

Substrate in this data set: CCCCCCCCCCCCCCCC(=O)Oc1ccc([N+](=O)[O-])cc1
The experiment in a line: initial-rate hydrolysis of pNPP, p-nitrophenol release, Michaelis-Menten fit. The format is biochemical, Thermomyces lanuginosus. The conditions noted are these: 37 °C, pH 9.0, Tris-HCl 100 mM, apparent Km, pNPP 0.25-10 mM. The text has this: initial-rate hydrolysis of pNPP, p-nitrophenol release, Michaelis-Menten fit on TLL (Thermomyces lanuginosus lipase)

B1: TLL (Thermomyces lanuginosus lipase) (Thermomyces lanuginosus) (protein)
chain: EVSQDLFNQFNLFAQYSAAAYCGKNNDAPAGTNITCTGNACPEVEKADATFLYSFEDSGVGDVTGFLALDNTNKLIVLSFRGSRSIENWIGNLNFDLKEINDICSGCRGHDGFTSSWRSVADTLRQKVEDAVREHPDYRVVFTGHSLGGALATVAGADLRGNGYDIDVFSYGAPRVGNRAFAEFLTVQTGGTLYRITHTNDIVPRLPPREFGYSHSSPEYWIKSGTLVPVTRNDIVKIEGIDATGGNNQPNIPDIPAHLWYFGLIGTCL
Take B1: the Km (usually the concentration of substrate that gives half-maximal velocity) is 220 ± 50 µM; the Vmax (usually the top rate of the reaction or transport when substrate is in excess) was determined as 402 µmol/min/mg; the kcat (as a rule, the number of substrate molecules converted per active site and unit of time at saturation) came to 594 ± 4 s⁻¹; the kcat/Km (in general, the second-order rate constant that governs catalysis at low substrate concentration) was found to be 2.72e+06 ± 54000 M⁻¹ s⁻¹.
